pKd: −log10 of the molar value.
Columns and labels:
[1] = molecular target: recombinant human TNFα (soluble human TNFα, residues 85-233, C-terminal His tag) (human) (UniProt P01375); assay: ELISA
[2] = molecular target: rhTNFα labeled in the amine groups (NT-650, NHS-coupling) (human) (UniProt P01375); assay: MST
[3] = molecular target: Adalimumab labeled with NT-647 in the thiol groups (Cys-coupling) (human); assay: MST

| Substance | pKd [1] | OD50 (antagonist concentration at half-maximal OD), rhTNFα coated at 1,25 µg/ml [1] [nM] | OD50 (antagonist concentration at half-maximal OD), rhTNFα coated at 2,5 µg/ml [1] [nM] | KD of the first phase (Adalimumab 30.5 pM to 7.8 nM) [2] [pM] | KD of the second phase (Adalimumab 1.95 to 1 µM) [2] [nM] | pKd [3] |
| --- | --- | --- | --- | --- | --- | --- |
| Adalimumab (Humira) (antibody) | 8.88 | 0.641 | 0.622 | 100 | 21 | – |
| recombinant human TNFα (soluble human TNFα, residues 85-233, C-terminal His tag) (from UniProt P01375 85-233) (ligand) | – | – | – | – | – | 7.53 |
